Assay results published in IntAct's records for PubMed 29778605.

B1: Vacuolar protein sorting-associated protein 33B (Homo sapiens), Q9H267 (parent)
chain: MAFPHRPDAPELPDFSMLKRLARDQLIYLLEQLPGKKDLFIEADLMSPLDRIANVSILKQHEVDKLYKVENKPALSSNEQLCFLVRPRIKNMRYIASLVNADKLAGRTRKYKVIFSPQKFYACEMVLEEEGIYGDVSCDEWAFSLLPLDVDLLSMELPEFFRDYFLEGDQRWINTVAQALHLLSTLYGPFPNCYGIGRCAKMAYELWRNLEEEEDGETKGRRPEIGHIFLLDRDVDFVTALCSQVVYEGLVDDTFRIKCGSVDFGPEVTSSDKSLKVLLNAEDKVFNEIRNEHFSNVFGFLSQKARNLQAQYDRRRGMDIKQMKNFVSQELKGLKQEHRLLSLHIGACESIMKKKTKQDFQELIKTEHALLEGFNIRESTSYIEEHIDRQVSPIESLRLMCLLSITENGLIPKDYRSLKTQYLQSYGPEHLLTFSNLRRAGLLTEQAPGDTLTAVESKVSKLVTDKAAGKITDAFSSLAKRSNFRAISKKLNLIPRVDGEYDLKVPRDMAYVFGGAYVPLSCRIIEQVLERRSWQGLDEVVRLLNCSDFAFTDMTKEDKASSESLRLILVVFLGGCTFSEISALRFLGREKGYRFIFLTTAVTNSARLMEAMSEVKA
partner: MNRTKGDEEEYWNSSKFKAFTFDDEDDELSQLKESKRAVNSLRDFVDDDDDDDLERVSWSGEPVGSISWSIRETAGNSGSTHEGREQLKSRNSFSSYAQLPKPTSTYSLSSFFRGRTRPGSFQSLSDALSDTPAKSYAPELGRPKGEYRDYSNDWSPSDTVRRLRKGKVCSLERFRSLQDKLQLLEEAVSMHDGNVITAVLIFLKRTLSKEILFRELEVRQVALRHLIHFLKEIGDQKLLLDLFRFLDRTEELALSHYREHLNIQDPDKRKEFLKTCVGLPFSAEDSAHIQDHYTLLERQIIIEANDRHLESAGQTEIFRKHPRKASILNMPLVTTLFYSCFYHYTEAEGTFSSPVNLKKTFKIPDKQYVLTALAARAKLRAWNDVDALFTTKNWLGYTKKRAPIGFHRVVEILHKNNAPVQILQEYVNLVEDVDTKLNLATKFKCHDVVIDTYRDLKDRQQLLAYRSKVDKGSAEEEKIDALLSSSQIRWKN
B2: Vacuolar protein sorting-associated protein 33A (Homo sapiens), Q96AX1 (parent)
chain: MAAHLSYGRVNLNVLREAVRRELREFLDKCAGSKAIVWDEYLTGPFGLIAQYSLLKEHEVEKMFTLKGNRLPAADVKNIIFFVRPRLELMDIIAENVLSEDRRGPTRDFHILFVPRRSLLCEQRLKDLGVLGSFIHREEYSLDLIPFDGDLLSMESEGAFKECYLEGDQTSLYHAAKGLMTLQALYGTIPQIFGKGECARQVANMMIRMKREFTGSQNSIFPVFDNLLLLDRNVDLLTPLATQLTYEGLIDEIYGIQNSYVKLPPEKFAPKKQGDGGKDLPTEAKKLQLNSAEELYAEIRDKNFNAVGSVLSKKAKIISAAFEERHNAKTVGEIKQFVSQLPHMQAARGSLANHTSIAELIKDVTTSEDFFDKLTVEQEFMSGIDTDKVNNYIEDCIAQKHSLIKVLRLVCLQSVCNSGLKQKVLDYYKREILQTYGYEHILTLHNLEKAGLLKPQTGGRNNYPTIRKTLRLWMDDVNEQNPTDISYVYSGYAPLSVRLAQLLSRPGWRSIEEVLRILPGPHFEERQPLPTGLQKKRQPGENRVTLIFFLGGVTFAEIAALRFLSQLEDGGTEYVIATTKLMNGTSWIEALMEKPF
partner: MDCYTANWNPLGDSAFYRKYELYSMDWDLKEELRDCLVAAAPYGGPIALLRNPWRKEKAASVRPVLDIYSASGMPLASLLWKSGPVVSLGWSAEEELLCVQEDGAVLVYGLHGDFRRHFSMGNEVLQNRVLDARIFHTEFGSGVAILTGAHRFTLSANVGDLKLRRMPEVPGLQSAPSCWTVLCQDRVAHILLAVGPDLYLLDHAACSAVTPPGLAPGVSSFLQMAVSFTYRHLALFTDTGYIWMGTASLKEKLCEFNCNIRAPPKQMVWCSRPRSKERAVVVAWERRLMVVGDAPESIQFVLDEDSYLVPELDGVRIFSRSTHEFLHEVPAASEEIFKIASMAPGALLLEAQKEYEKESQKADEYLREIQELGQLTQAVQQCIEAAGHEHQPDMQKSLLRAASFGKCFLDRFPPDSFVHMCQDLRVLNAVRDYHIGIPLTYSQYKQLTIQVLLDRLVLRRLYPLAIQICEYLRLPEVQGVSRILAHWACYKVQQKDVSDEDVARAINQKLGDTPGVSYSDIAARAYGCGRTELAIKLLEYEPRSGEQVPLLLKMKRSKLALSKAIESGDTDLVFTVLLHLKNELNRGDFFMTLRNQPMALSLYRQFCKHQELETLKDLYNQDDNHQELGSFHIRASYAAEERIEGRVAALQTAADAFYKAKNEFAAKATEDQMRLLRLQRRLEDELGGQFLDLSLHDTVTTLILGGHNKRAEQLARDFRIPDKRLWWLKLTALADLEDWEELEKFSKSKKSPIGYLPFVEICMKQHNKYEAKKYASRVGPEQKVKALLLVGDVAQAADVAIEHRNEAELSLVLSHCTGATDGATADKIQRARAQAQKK

Variants of: B1
Settings: with spe39_human VIPAS39, Q9H9C1

**Q.** K419D;L431K was tested. Which “effect of a mutation on the interaction” value did it give?
**A.** The value was “disrupting interaction strength”.

**Q.** With P428D;L431K as the variant, how does the “effect of a mutation on the interaction” value read?
**A.** The value was “decreasing interaction strength”.

Variants of: B2
Settings: with vps16_human VPS16, Q9H269

**Q.** For MAAHLSYGRVNLNVLREAVRRELREFLDKCAGSKAIVWDEYLTGPFGLIAQYSLLKEHEVEKMFTLKGNRLPAADVKNIIFFVRPRLELMDIIAENVLSEDRRGPTRDFHILFVPRRSLLCEQRLKDLGVLGSFIHREEYSLDLIPFDGDLLSMESEGAFKECYLEGDQTSLYHAAKGLMTLQALYGTIPQIFGKGECARQVANMMIRMKREFTGSQNSIFPVFDNLLLLDRNVDLLTPLATQLTYEGLIDEIYGIQNSYVKLPPEKFAPKKQGDGGKDLPTEAKKLQLNSAEELYAEIRDKNFNAVGSVLSKKAKIISAAFEERHNAKTVGEIKQFVSQLPHMQAARGSLANHTSIAELIKDVTTSEDFFDKLTVEQEFMSGIDTDKVNNYIEDCIAQKHSLIKVLRLVCLQSVCNSGLKQKVLDYYKREILQTYGDEHKLTLHNLEKAGLLKPQTGGRNNYPTIRKTLRLWMDDVNEQNPTDISYVYSGYAPLSVRLAQLLSRPGWRSIEEVLRILPGPHFEERQPLPTGLQKKRQPGENRVTLIFFLGGVTFAEIAALRFLSQLEDGGTEYVIATTKLMNGTSWIEALMEKPF [Y438D;I441K], which “effect of a mutation on the interaction” value is on record?
**A.** The value was “disrupting interaction strength”.
